Molecular target: thrombin

B1: FX-control+ of family 2 (insertion of the thrombin recognition site on fibrinogen = fibrinopeptide A; comparative) (protein)
chain: ANSFLEEMKKGHLERECMEETCSYEEAREVFEDSDKTNEFWNKYKDGDQCETSPCQNQGKCKDGLGEYTCTCLEGFEGKNCELFTRKLCSLDNGDCDQFCHEEQNSVVCSCARGYTLADNGKACIPTGPYPCGKQTLERRKRSVAQATSSSGEAPDSITWKPYDAADLDPTENPFDLLDFNQTQPERGDNNLTRDFLAEGGGVRIVGGQECKDGECPWQALLINEENEGFCGGTILSEFYILTAAHCLYQAKRFKVRVGDRNTEQEEGGEAVHEVEVVIKHNRFTKETYDFDIAVLRLKTPITFRMNVAPACLPERDWAESTLMTQKTGIVSGFGRTHEKGRQSTRLKMLEVPYVDRNSCKLSSSFIITQNMFCAGYDTKQEDACQGDSGGPHVTRFKDTYFVTGIVSWGEGCARKGKYGIYTKVTAFLKWIDRSMKTRGLPKAKSHAPEVITSSPLKEDQVDPRLIDGK
appearance of FXa after incubation with thrombin (Pefachrome FXa8595 hydrolysis at 405 nm): FX-IIa and FX-control+ are capable of being activated by thrombin and of releasing FXa

From US20160145598
